Source: IntAct's records for PubMed 15214843

B1: Septin-5 (Homo sapiens), Q99719 (parent)
chain: MSTGLRYKSKLATPEDKQDIDKQYVGFATLPNQVHRKSVKKGFDFTLMVAGESGLGKSTLVHSLFLTDLYKDRKLLSAEERISQTVEILKHTVDIEEKGVKLKLTIVDTPGFGDAVNNTECWKPITDYVDQQFEQYFRDESGLNRKNIQDNRVHCCLYFISPFGHGLRPVDVGFMKALHEKVNIVPLIAKADCLVPSEIRKLKERIREEIDKFGIHVYQFPECDSDEDEDFKQQDRELKESAPFAVIGSNTVVEAKGQRVRGRLYPWGIVEVENQAHCDFVKLRNMLIRTHMHDLKDVTCDVHYENYRAHCIQQMTSKLTQDSRMESPIPILPLPTPDAETEKLIRMKDEELRRMQEMLQRMKQQMQDQ
partner: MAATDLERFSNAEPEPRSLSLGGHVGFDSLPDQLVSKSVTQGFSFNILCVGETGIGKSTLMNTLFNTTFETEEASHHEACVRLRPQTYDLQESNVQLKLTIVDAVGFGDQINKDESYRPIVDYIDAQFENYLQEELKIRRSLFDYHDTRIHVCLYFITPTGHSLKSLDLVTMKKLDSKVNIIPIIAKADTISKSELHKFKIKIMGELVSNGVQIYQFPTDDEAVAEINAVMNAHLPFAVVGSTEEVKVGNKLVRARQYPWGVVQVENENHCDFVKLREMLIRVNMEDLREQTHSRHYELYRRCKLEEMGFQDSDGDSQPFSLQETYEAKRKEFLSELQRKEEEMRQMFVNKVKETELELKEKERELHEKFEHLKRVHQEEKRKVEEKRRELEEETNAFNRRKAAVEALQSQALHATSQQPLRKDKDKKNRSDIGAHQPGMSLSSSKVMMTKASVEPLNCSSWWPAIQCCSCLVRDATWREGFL

Variants of: B1
Details: with sept8_human SEPTIN8, Q92599

Row | effect of a mutation on the interaction | Variant
1 | disrupting interaction strength | S58N
2 | with no effect | K40A;K41A
3 | with no effect | S38A
